The values below come from patent US20220135665A1.

Assay [1] concerns the target recombinant human VEGF165 protein (human) (UniProt P15692). In words: streptavidin-coated sensor with immobilized biotin-labeled VEGF165; reference Lucentis.
The target is the same in assay [2]. The assay is described as follows: ELISA; coated VEGF165 titrated (0.15-3000 ng/mL), Fab fixed at 1 ug/mL; EC50 is in coated antigen concentration. (In general: ELISA stands for enzyme-linked immunosorbent assay.)
Assay [3] shares this target. The assay is described as follows: streptavidin-coated sensor with immobilized biotin-labeled VEGF165, Fab at multiple concentrations.
For assay [4] the target is unchanged. The assay is described as follows: cell-based or functional assay.
Assay [5] shares this target. The assay is described as follows: Table 3, binding affinity to recombinant VEGF165 (streptavidin-coated sensor, biotin-labeled VEGF165).

Values joined by “and” are separate entries in the source; they are usually repeats but may differ in a detail not shown here. Equal entries are not always repeated.

B1: humanized antibody VEGF-H988 Fab fragment (Fab, V domains shown)
VH: QSVQESGPGLVKPSETLSLTCTVSGIDLSSYAISWVRQPPGKGLEYIGYIWNDLFTYYASWAKGRVTISVDTSKNQVDLKLSSVTAADTAVYFCARGTLGDYGGMDPWGQGTLVTVSS
VL: ELQLTQSPSSLSASVGDRVTITCQSSKFLWQGRRLAWYQQKPGKVPKLLIYGASTLASGVPSRFKGSGSGTDFTLTISSLQPEDVATYYCAGYKSYDGDVVGFGGGTKVEIKR
Regarding B1, in assay [1], the fold affinity against Lucentis worked out at 3.75 fold. For the same molecule, the EC50 (as a rule, the concentration needed to bring the measured effect to its halfway point) in assay [2] is 0.0187 µg/mL. In addition, in assay [3], the Kd (usually the equilibrium constant for the complex coming apart) turned out to be 0.154 nM, the off-rate constant (koff) (commonly a measure of how fast the partners let go of each other) was 4.21e-05 s⁻¹ and the kon (commonly a measure of how fast the partners come together) was 274000 M⁻¹ s⁻¹. In addition, in assay [4], the EC50(nM), neutralization of HUVEC proliferation, VEGF165 at 10 ng/mL was 0.23 nM and 0.18 nM and 0.22 nM.

B2: VEGF-H988 (sample label in Table 3) (antibody, V domains shown)
VH: QSVQESGPGLVKPSETLSLTCTVSGIDLSSYAISWVRQPPGKGLEYIGYIWNDLFTYYASWAKGRVTISVDTSKNQVDLKLSSVTAADTAVYFCARGTLGDYGGMDPWGQGTLVTVSS
VL: ELQLTQSPSSLSASVGDRVTITCQSSKFLWQGRRLAWYQQKPGKVPKLLIYGASTLASGVPSRFKGSGSGTDFTLTISSLQPEDVATYYCAGYKSYDGDVVGFGGGTKVEIK
Regarding B2, in assay [5], the Kd was 0.0195 nM, the koff worked out at 6.7e-06 s⁻¹ and the kon came to 344000 M⁻¹ s⁻¹.

B3: Brolucizumab (scFv, INN chains, looked up, V domains shown)
VH: EVQLVESGGGLVQPGGSLRLSCTASGFSLTDYYYMTWVRQAPGKGLEWVGFIDPDDDPYYATWAKGRFTISRDNSKNTLYLQMNSLRAEDTAVYYCAGGDHNSGWGLDIWGQGTLVTVSS
VL: EIVMTQSPSTLSASVGDRVIITCQASEIIHSWLAWYQQKPGKAPKLLIYLASTLASGVPSRFSGSGSGAEFTLTISSLQPDDFATYYCQNVYLASTNGANFGQGTKLTVL
modifications: scFv
Turning to B3, in assay [4], the EC50(nM), neutralization of HUVEC proliferation, VEGF165 at 10 ng/mL was 0.41 nM; the EC50(nM), neutralization of HUVEC proliferation, VEGF165 at 100 ng/mL came out at 6.74 nM; the EC50(nM), neutralization of HUVEC proliferation, VEGF165 at 1000 ng/mL was 71.2 nM; the Maximum neutralization rate (%), VEGF165 at 10 ng/mL was 100%. In addition, in assay [4], the Maximum neutralization rate (%), VEGF165 at 100 ng/mL was 101% and the Maximum neutralization rate (%), VEGF165 at 1000 ng/mL is 101%.
